{"source": "the DeepSol protein solubility set"}
{"experiment": "soluble on expression in E. coli; label from the status in PepcDB or PDB records"}
{"sequence": "MQDEESLMWVQFGGDDGKQVVAELAMRADKYAVRTRDNSSPVLTGFEGVPTYAYSPAWVIEGRFEPYAEPMDVPIGTANPLVDGVHRSVGEVVFRAPGVPHEIRLHAEEEKLGALNVTFHDETNGDTTDEWRKVFIPRPRPDGSVVIDFNRAINYPSAFTPYGTCPMPVRGNSVDVRVEAGEKLPQGLEHHHHHH", "soluble on expression in E. coli": "soluble"}
{"sequence": "MGSDKIHHHHHHMDSNIFISTYHIRYGQEDSSMNKLKILFVLFTNIKTGAGTEKSLYYYLKYADISKFDITVLQTNLMPGGQRLSDSDLETIKNKAKFIEIKDYRGLLGFIRNKYLSYLLNLFILPMLLKICKYTVYHKKLKQLKDSNVIYLFNNDYSNLFSHKSVVIGSNHCAFDNLDSFSQKLIARLLSLRIILPSITAFHLFPHNVSFKEYFGNKPLILLSNGVDTDLYYPSHSQNLKTKILFVGRLEEVKGILMAIKVYNNIKKMFPVEFVIVGSGSLESEVDKLCASDTNVKHFKHVAENDLANIYRSCDIFLYPTQGDSYALVVLEALSSGLKVVTTVNIYRVYNDFIRFNVIKFADFDEKSLTQALLDIKNTVINKNEIHNYIEKNYSWKKVSENLFNLMYNLAVKN", "soluble on expression in E. coli": "not soluble"}
{"sequence": "MATLKDIAIEAGVSLATVSRVLNDDPTLNVKEETKHRILEIAEKLEYKTSSARKLQTGAVNQHHILAIYSYQQELEINDPYYLAIRHGIETQCEKLGIELTNCYEHSGLPDIKNVTGILIVGKPTPALRAAASALTDNICFIDFHEPGSGYDAVDIDLARISKEIIDFYINQGVNRIGFIGGEDEPGKADIREVAFAEYGRLKQVVREEDIWRGGFSSSSGYELAKQMLAREDYPKALFVASDSIAIGVLRAIHERGLNIPQDISLISVNDIPTARFTFPPLSTVRIHSEMMGSQGVNLVYEKARDGRALPLLVFVPSKLKLRGTTR", "soluble on expression in E. coli": "soluble"}
{"sequence": "AHHHHHHGSEFNIIIAGVGGQGGLTLSRIIGSAAMVEGYRVRIGETLGMSQRYGSVLSYLRFGDSVYSPLIEEGKANLMLALEPVEALRNAAFLGKGSYAIVNAYPIHTATTLVGKEKYPSLEEIKEALEKICRVEMMNFQKEADLINPRTTGVLMLGYAQGKGLLPLKKESIIEGIRLTLREKLWEINFKAFERGRELAKHVCCDV", "soluble on expression in E. coli": "soluble"}
{"sequence": "MSLTTPLYPIILAGGSGTRLWPLSRQNFPKQFLKLNGELSLIQQTMKRAMGLPGNQTIIVSNDAHYFICQDQLQDFNAQTTYLLEPCARNTAPAIACAAHYLANTVGKDAVMLVLPSDHWIADDEIWLAAMLEGGQFASENNAIVTFGIKPDSPKTGYGYIEAGTTLSSDIKQVLSFREKPDAHTAAQFVSKGNYFWNSGMFICRAGVYLEELEQFETDIYQFSQQALTLAQHHHDFLRLDLDCFSQCKEESIDYAIMEKTDKAVVIPISIQWSDLGCWTAVADANKQDEQGNTLIGNVIAQDSHNCLINSEELLVTTVGIQDQIIVATSDAVLVADKRYSQQVKDLVHSLRKDHPHLTQDHQRVPRPWGYYEVLAEGTSFKVKRLMVKPGAKLSLQTHQHRAEHWVIVGGEAEVVNGNNTFRLSKNQSTYIPKNALHRLSNPHNEPLYVIEVQSGSYLGEDDIKRFDDIYLRKEVEEGHHHHHH", "soluble on expression in E. coli": "soluble"}
{"sequence": "MGSDKIHHHHHHMGGKWMRWMAPAPPASNVPKCSCHRLLGKEPPNDSKDCRPGSLTGRALFSDVPRGMAKDVFQVHCVSATGRRVINKKIKRAKLLAFLETLPRCVVGMEACGSAHHWGGELRKLGHDVRLMPAAYVKLYVKRGKTDAADAEAICEAVRRQSMRFVEIESEDQQAVLAIHSARDLVVRQRTQVVNMIRSILREFGHILPTGIEAVSKFAREHGTEDQLDMPEIADGILGVMCHQLNGLNARVDGLTKLIEQHAWLDADARRLMRMPGIGPITASAIVATIGDAKQFETGRDLATWLGLTPLNKSSGGKERLGRIIKKGDRYIRKLLIIGMTSRSLMAKNKPEKADTWTAKLPDEQPFRLATVAMANKSARIIWALLTKREEYRQPIV", "soluble on expression in E. coli": "not soluble"}
{"sequence": "MGSDKIHHHHHHMVSIIDFYVLQKRPSNGGGFDIAIGNPPYISAPTQIASPELNEQRQRIVASKKYKSLNEKWDLYVPFMELGMQLLCPNGVFSMIVPYPLTNQKYGKKLRKMIVEEYRLLEIADLNGTKIFENATVSNCIPFIQNSQPEGELRITQIFEDKTIREVLSKSPKALKLDKKNYVWNLTEEERTGNRFANMNVLGDFCYISVGMVVNANEKDAQGAFKKEDLISDTYDAIHCRKYIEAKDIDKFQVKRVRYLEWNTERCPEKLRRPTFRELYDRPKLIMNCLGTINVTIDAEEHFLHNHSIYCAILWKDLKDVSNKSISSSVKKFSKHNREAMESLSEKVDLYYLLGILNSSMADQLLTDQRGGDYHIYPEHIRNLPIPVPQREIQNAIGEIAKQILLIRETNTDYSELEEQLNNLVEALYQ", "soluble on expression in E. coli": "not soluble"}
